The target in assay [1] is T1, 人CD47 (Jurkat细胞, 高表达人CD47) (human, UniProt Q08722 19-323).
T1 construct: whole, on cells
The assay can be described thus: flow cytometry competition against hSIRPa(ECD)-Fc-Biotin on Jurkat cells. (In general: In flow cytometry, cells or beads pass a laser one at a time.)

The target in assay [2] is T2, hCD47(ECD)-Fc (human, UniProt Q08722 19-139).
T2 construct: extracellular domain; not shown: Fc part not described
The assay can be described thus: BLI (Fortebio Red96), Protein A probes, 30℃.

The target of assay [3] is T3, hPD-L1(ECD)-Fc (human, UniProt Q9NZQ7 19-238).
T3 construct: extracellular domain; also called 重组人PD-L1; not shown: Fc part not described
Kind of assay: BLI (Fortebio Red96), Protein A probes, 30℃. (In general: Biolayer interferometry detects binding as a change in optical thickness at a sensor tip.)

In general, IC50 refers to the concentration that gives 50% inhibition. One may read the Kd as a measure of binding affinity in units of concentration. A low value points to a tighter complex.

T3 sequence (Q9NZQ7 19-238): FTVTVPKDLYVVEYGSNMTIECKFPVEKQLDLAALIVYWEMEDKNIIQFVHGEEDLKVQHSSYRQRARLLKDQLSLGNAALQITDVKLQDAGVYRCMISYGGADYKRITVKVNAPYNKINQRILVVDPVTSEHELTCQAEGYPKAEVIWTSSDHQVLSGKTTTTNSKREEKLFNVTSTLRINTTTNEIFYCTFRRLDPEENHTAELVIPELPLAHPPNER
T2 sequence (Q08722 19-139): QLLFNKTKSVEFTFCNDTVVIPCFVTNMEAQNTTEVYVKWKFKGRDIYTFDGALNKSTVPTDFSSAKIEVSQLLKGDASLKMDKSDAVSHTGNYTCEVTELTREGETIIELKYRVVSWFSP
T1 sequence (Q08722 19-323): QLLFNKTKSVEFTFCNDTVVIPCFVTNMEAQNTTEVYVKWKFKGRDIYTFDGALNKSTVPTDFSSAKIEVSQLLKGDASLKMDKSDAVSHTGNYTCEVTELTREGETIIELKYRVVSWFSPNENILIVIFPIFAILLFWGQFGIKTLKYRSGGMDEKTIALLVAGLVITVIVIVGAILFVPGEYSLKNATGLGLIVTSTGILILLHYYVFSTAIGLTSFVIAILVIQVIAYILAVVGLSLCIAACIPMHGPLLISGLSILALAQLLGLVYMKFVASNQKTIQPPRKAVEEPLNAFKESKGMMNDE

B1: CD47单域抗体Fc融合蛋白(Nb-Fc) (Fc fusion)
chain: QVQLQESGGGLVQPGGSLRLSCAASGYAYTSDCMGWFRQTPGKGLEGVALIYTPGASTNYADSVKGRFTISQDNSKSTVYLQMNSLRAEDTAMYYCAARRGACSLRLPFFYWGQGTLVTVSS
notes: Control; also called CD47 Nb-Fc; 原始CD47单域抗体; not shown: Fc part (and any hinge or linker) of the control fusion is not described
As for B1, the IC50 in assay [1] amounted to 4.49 nM. This molecule also returned a dissociation constant (Kd) in assay [2] of 6.13 nM.

B2: PD-L1单域抗体Fc融合蛋白(Nb-Fc) (Fc fusion)
chain: QVQLQESGGGLVQPGGSLRLSCTASGYNLSPSCMGWFRQAPGKGLEGVAFTDADGSTRYADSVKARFTISRDNSKNTLYLQMNSLRAEDTAVYYCAADFFSYCSVVFRASARDKYRGQGTLVTVSS
notes: Control; also called PD-L1 Nb-Fc; 原始PD-L1单域抗体; not shown: Fc part (and any hinge or linker) of the control fusion is not described
B2 registered an equilibrium dissociation constant (Kd) in assay [3] of 26.5 nM.

The record behind these values is patent publication CN112745392A (SHANGHAI NOVAMAB BIOPHARMACEUTICALS CO LTD, dated 2021).
